Test results: patent US20240173424A1, “ANTI-NECTIN-4-ANTIBODY EXATECAN CONJUGATES” (EMERGENCE THERAPEUTICS AG, priority 2021, published 2024)

Assays:
[1] = target: T1, Nectin-4 expressed by tumors and Nectin-4 expressed by human keratinocytes (Homo sapiens, UniProt Q96NY8); test: Differential binding to tumor cells and human keratinocytes
T1 construct: Cells or cell lines (10,000-50,000) expressing Nectin-4 (naturally or transfected); endogenous in cells; host or cells: SUM190/SUM190PT (also SUM149 in IHC), NHEK differentiated with 0.1 mM CaCl2, human skin sections
T1 sequence (Q96NY8 32-510): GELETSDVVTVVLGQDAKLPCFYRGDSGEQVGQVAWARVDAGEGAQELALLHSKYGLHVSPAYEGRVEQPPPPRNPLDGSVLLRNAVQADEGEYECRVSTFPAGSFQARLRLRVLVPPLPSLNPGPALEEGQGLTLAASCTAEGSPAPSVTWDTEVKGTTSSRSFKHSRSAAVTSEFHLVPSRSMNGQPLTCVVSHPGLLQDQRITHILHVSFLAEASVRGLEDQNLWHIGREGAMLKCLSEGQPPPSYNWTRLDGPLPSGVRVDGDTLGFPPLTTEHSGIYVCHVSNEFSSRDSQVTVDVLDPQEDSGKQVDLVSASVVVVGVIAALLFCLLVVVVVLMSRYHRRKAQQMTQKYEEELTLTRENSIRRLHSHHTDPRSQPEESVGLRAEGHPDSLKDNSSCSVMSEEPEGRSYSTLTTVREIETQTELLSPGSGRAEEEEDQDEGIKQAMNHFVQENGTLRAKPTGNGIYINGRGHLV
Excerpt: FIG. 6: Differential binding to Nectin-4 expressed by tumor cell line and normal differentiated human keratinocytes. […] Cells were then stained with phycoerythrin conjugate goat anti human Fc antibody. Normalized mean fluorescence intensities are shown. Non-linear curve fitting (4 parameters) was done with GraphPad Prism 9 software. Horizontal bar is placed at 50% of maximum staining intensity obtained with HA22 antibody on SUM190 cells.
FIG. 7: Differential binding to Nectin-4 expressed by tumor cell line and normal differentiated human keratinocytes. Detection by flow cytometry. • Flow cytometry analysis of TNBC cell line (SUM190, A) and normal differentiated (0.1 mM CaCl2) human keratinocytes (NHEK, B) using 5 μg/mL of HA22 (Enfortumab), Ch-5A12.2, Ch-15A7.5, and Ch-8F06. Cells were then stained with phycoerythrin conjugate goat anti human Fc antibody. Normalized mean fluorescence intensities are shown.
FIG. 8: Differential binding to Nectin-4 expressed by tumor cell line and human keratinocytes. Detection by immuno-histochemistry. Cryo-preserved OCT-embedded blocks of high expressing levels of Nectin-4 tumor cell line (SUM190), low expressing levels of Nectin-4 tumor cell line (SUM149), human and cynomolgus skin were processed for staining with 15A7.5 mAb (A) and 9A2.7 mAb (B). Quick score reported for each mAb are shown (A, B). C, ratio of quick score SUM190 over human skin. […]
Remaining blocks were stored at −80° C. until further use. […] Several dilution of each mAb were tested to optimize noise to signal ratio and 0.5 μg/ml of mouse 15A7.5 mAb and 10 µg/mL of mouse 9A2.7 mAb were determined as optimal. […] Both the stained cells proportion and the staining intensity were evaluated for each field. […] Scoring procedure was as follows: (i) The proportion of cells stained positively was estimated and a score from 0 to 4 was be assigned for each field (0=0-5%; 1=5-25%; 2=25-50%; 3=50-75%; and 4=75-100%); and (ii) The staining intensity was scored as 0, 1, 2, or 3 corresponding to the presence of negative, weak, intermediate, and strong brown staining, respectively. […]

In vivo half-life = settings: due to a lower absorption rate in the skin
[2] = system: SUM190PT cells and normal human differentiated keratinocytes; format: cell-based
Protocol: FIG. 10: Differential in vitro cytotoxic activity to tumor cells and normal differentiated human keratinocytes. […] Viability (MTT assay) after a 5-days incubation period is reported. EC50 values were determined by GraphPad Prism 9 software using non-linear curve fitting (4 parameters). […] Data shown is representative of 2 different Nectin-4 expressing tumor cell lines (SUM190PT and MDA-MB468) and 3 independent donors for human keratinocytes.
To analyze the in vitro cytotoxic activity of ADC, cell viability was assessed using the AlamarBlue staining protocol as recommended by the manufacturer (Biosource, CA, USA). The test incorporates a fluorescent oxidation-reduction indicator. Fluorescence intensity is proportional to cellular metabolic reduction. Experiments were done by incubating 3000 cells/well (SUM190PT or differentiated NHEK) in triplicate with serial dilutions of ADC at Day 0 in 96-wells plates. AlamarBlue was measured at Day 5 by incubating 1/10 volume of alamarBlue solution for 2 h at 37° C. and read at 595 nm (FLUOstar Optima, BMG Labtech).

[3] = system: SUM190PT cells and normal human differentiated keratinocytes; test: Internalization assay with pHAB dye conjugates, tumor cell line and keratinocytes; format: cell-based; settings: in vitro, in reference to HA22 mAb (Enfortumab)
Protocol: FIG. 9: Differential internalization in tumor cell line and human keratinocytes. Detection by fluorescence Enfortumab (HA22), Ch-15A7.5 and Isotypic control mAbs were coupled to pHAB thiol reactive dye to reach dye antibody ratio comprised between 4.58 and 5.55. A dose range of each of these antibody dye conjugates (1.6 ng/ml-5 μg/mL) was incubated in duplicates with SUM190PT Nectin-4-expressing cell line (A) normal human differentiated (0.1 mM CaCl2) keratinocytes (B). Intracellular fluorescence was recorded after 24 hours with florescence microplate reader (ClarioStar). Reported are the fluorescence intensities in function of dye antibody conjugate concentration.
Ten thousand SUM190PT or human differentiated keratinocytes (0.1 mM CaCl2) were seeded in 96-wells plates and subsequently incubated for 24 hours at 37° C., with a dose range (1.6 ng/ml-1 μg/mL) of anti Nectin-4 mAbs and isotypic control conjugated with pHAB thiol reactive dye. Upon internalization and endo-lysosomal processing, the acidic environment causes the dye to fluoresce. Fluorescence intensity was monitored on a plate reader with an excitation at 532 nm and an emission at 560 nm.
The thiol reactive dye pHAB (Promega) was conjugated to cysteine of selected anti-Nectin-4 ThiomAb (D265C, L234A, L235A) antibodies using maleimide chemistry according to manufacturer's instructions. […]

B1: mAb 15A7.5: parental monoclonal anti-Nectin-4 antibody, CDRs SEQ ID NO: 1-12, VH/VL SEQ ID NO: 13/14 (antibody, V domains shown)
VH: EVKLVESGGGLVQPGGSRKLSCAASGFTFSNYGMAWVRQAPGKGPEWVAFISNLAYGINYADTVTGRFTISRENAKNTLYLEMRSLRSEDTAMYYCARGARATGWFAYWGQGTLVTVSA
VL: DIVMTQSQKFMSTSIGDRVSVTCKASQNVDTHVAWYQEKPGQSPKALIYSASYRYSGVPDRFTGSGSGTDFTLTISNVQSEDLADYFCQQYNSYPLTFGGGTKLEIK
modifications: VH_15A7.5; VK_15A7.5
For B1, the “affinity to Nectin-4 expressed by tumors in comparison to Nectin-4 expressed by human keratinocytes” value ([1]; in vitro differentiated Nectin-4 expressing keratinocytes) was “higher affinity”, the “binding affinity towards keratinocytes in comparison to tumor cells” value ([1]; in vitro, in reference to HA22 mAb (Enfortumab)) was “lower binding affinity” and the half-life (In vivo half-life) was “higher half-life”. The “cytotoxic activity towards keratinocytes in comparison to tumor cells” value [2] was “lower” and the “internalization towards keratinocytes in comparison to tumor cells” value [3] was “lower”.
